Publication doi:10.1101/2020.07.06.189977 (bioRxiv, 2020)

Target: the molecule itself
Assay: crystal structure

B1: ERα-L372S/L536S double-mutant ligand-binding domain (LBD, amino acid residues 298–554) (domain or fragment, UniProt P03372 298-554, looked up)
chain: IKRSKKNSLALSLTADQMVSALLDAEPPILYSEYDPTRPFSEASMMGLLTNLADRELVHMINWAKRVPGFVDLTSHDQVHLLECAWLEILMIGLVWRSMEHPGKLLFAPNLLLDRNQGKCVEGMVEIFDMLLATSSRFRMMNLQGEEFVCLKSIILLNSGVYTFLSSTLKSLEEKDHIHRVLDKITDTLIHLMAKAGLTLQQQHQRLAQLLLILSHIRHMSNKGMEHLYSMKCKNVVPSYDLLLEMLDAHRLHAPTS
  binding result: binds
